Results as given in patent US20230066984A1, “New Carbon Glycoside Glycosyltransferase and Use Thereof” (CAS Center for Excellence in Molecular Plant Sciences, priority 2020, published 2023).

Test: In vitro functional identification of C-glycosyltransferases by HPLC, phloretin as glycosyl receptor
Type: biochemical
Conditions: 0.1 mM phloretin, 0.3 mM UDP glucose, crude enzyme, 37° C., 2 h, HPLC (FIG. 1A)
Method: The recombinant plasmid was transformed into competent cells of Escherichia coli BL21 (DE3), and cultured overnight at 37° C. in solid LB medium (kanamycin 50 μg/mL). Single colony was transferred to a 2 mL LB liquid medium (containing 50 μg/ml kanamycin) and incubated overnight. The bacterial fluid was transferred to a new 100 ml LB liquid medium with antibiotics and incubated at 37° C. and 250 r/min until OD600 reached 0.5-0.6. The culture was cooled down to 16° C. in a water bath. Then inducer IPTG was added at a final concentration of 0.1 mM. The mixture was cultured at 16° C. for low temperature induction and 180 r/min for 20 h. The BL21(DE3) recombinant strain carrying the pET28a empty plasmid was used as a blank control, and the culture operation was the same as above. The bacteria were harvested by centrifugation (6000 r/min, 5 min), re-suspended in 1 mL of lysis buffer Buffer A (20 mM Tris-HCl, pH 8.0; 100 mM NaCl), and DNase was added to a final concentration of 5 μg/mL, Mg^2+ to a final concentration of 2 mM; protease inhibitor PMSF to a final concentration of 1 mM; the bacteria were incubated on ice for 30 min and then sonicated; refrigerated centrifugation (10,000 rpm, 30 min, 4° C.), filtered through a 0.2 µm filter membrane to obtain the supernatant crude enzyme solution, and added 20% glycerol for cryopreservation (−20° C.).
The in vitro enzyme catalytic assay system is 100 μL. The reaction system includes: 0.1 mM glycosyl receptor (phloretin or 2-hydroxynaringenin), 0.3 mM UDP glucose, 25 μL supernatant crude enzyme solution, and Buffer A is used to make up the volume to 100 μL, and react at 37° C. for 2 h. After the reaction was completed, an equal volume of methanol was added to terminate the reaction, and HPLC was used for product analysis. HPLC detection conditions: chromatographic column: reverse phase C18 column [SilGreen ODS column (ø 4.6×250 mm)], detection wavelength 280 nm; mobile phase: acetonitrile (0.1% formic acid)-water (0.1% formic acid) mixture gradient elution, with increased ratio from 5:95 to 100:0 within 0 to 20 min, and the flow rate was 1 mL/min.

Row | Molecule | conversion of substrate phloretin to C-glycosylated product (Nothofagin) | 5′ C-glycosylation of 3′-glycosylated phloretin giving phloretin-3′,5′-C-diglucoside
1 | ZmCGT4: C-glycosyltransferase from maize, SEQ ID NO: 14 (protein, Zea mays) MSSPAPSSASRSSHGSRGSPRIVLFPSAGMGHLVPFTRLAVALSAGHGCEISLLTALPTVSSAESRHIAALYAAFPAIRQLDLRFAPFDASSEFPGADPFYLRYEALRRCAPSLLGPLLAGAGASALVVDMALASVAIPVARELHVPCFVFFTASATMLSFKAYFPTYLDDVGAGHGVGDVDVPGVYRIPSSSVPQALHDPDNIFTRQFVANGRALATADGLLVNAFHAMEPEAVEALQGRFVLSVLPPVFAVGPLMPVNDLRETGEAAQKQGNYRAWLDEQPPRSVVYVSFGSRKALPKDQIKELAAGLEACGHRFLWVVKGAVVDRDDAGELSELLGEAFLRRVHGRGLVTKSWVEQEEVLRHPAVALFVSHCGWNSVTEAVSSGVPVLAWPRFADQRVNARVVVRCGLGVWADQWSWEGEEALVRAEEITALVMEAMEDDAMAVKAANVREAASRAVVDGGTSYRSLAAFVRRCTA | can convert the substrate phloretin to a product having a shorter retention time | 
2 | ZmCGT5: C-glycosyltransferase from maize, SEQ ID NO: 15 (protein, Zea mays) MSSPAPSSPSRSSHGSRSSPRIVLFPSAGMGHLVPFTRLAVALSAGHGCDISLVTALPTVSSAESRHIAALYAAFPAIRQLDLRFAPFDASSEFPGADPFYLRYEALRRCAPSLLGPLLAGAGASALVVDMALASVAIPVARELHVPCFVFFTASATMLSFKAYFPTYLDDVGAGHGVGDVDVPGVYRIPSSSVPQALHDPDNIFTRQFVANGRALATADGLLVNAFHAMEPEAVEALQGRFVLSVLPPVFAVGPLMPVNDLRETGEAAQKQGNYRAWLDEQPPRSVVYVSFGSRKALPKDQIKELAAGLEACGHRFLWVVKGAVVDRDDAGELSELLGEAFLRRVHGRGLVTKSWVEQEEVLRHPAVALFVSHCGWNSVTEAVSSGVPVLAWPRFADQRVNARVVVRCGLGVWADQWSWEGEEALVRAEEITALVMEAMEDDAMAVKAANVREAASRAVVDGGTSYRSLAAFVRRCTA | can convert the substrate phloretin to a product having a shorter retention time | 
3 | SiCGT1: C-glycosyltransferase from millet, SEQ ID NO: 17 (protein, listed as Setaria italica) MPTSGDHSGARPHVVLLPSAGMGHLVPFGRLAVALSAGHGCDVSVAAVLPTVSSAEARHLEALFAAADPAVRRLDFRLAPFDASEFPGADPFFLRFEAMRRSAPLLGPLLATAGASAVVTDIVLASVVLPVARECGVPCYVLFTASAAMLAFCAHFPGYLDANSAAGRAGVVGDVDIPGVYRIPKSSVPQALHDPKHLFTQQFVANGRGLVDADGILVNTFDALEPEAVTALRKGKVVSSFPLVFAVGPLLPVMFPAKDPAGYMQWLDAQPARSVVYVSFGSRTAISPDQLLELAAGLEASGHRFLWVVKSTVVDRDDAGELGDLLGHGFLERVRGRALVTKGWVEQEEILQHGSVGLFVSHCGWNSVTEAAAFGVPVLAWPRFGDQRINAAVVTRGGLGAWEERWSWDGEEGLVSGEEVGEKIKAVMADETVAKKAAAVGDAAAAAATSKGGTSYRSLAEFVGRCRDAGSRQDR | can convert the substrate phloretin to a product having a shorter retention time | can catalyze the glycosylation of the 3′-glycosylated phloretin at the 5′ position
4 | TaCGT2-D: C-glycosyltransferase from wheat, SEQ ID NO: 13 (protein, listed as Triticum aestivum) MASSSRDDRAGAAAPRPRIVLIPSAGMGHLAPFSRLAAALSSGHTCNVSLVTVLPTVSSAESGHLDALFAAFPAVRRLDFQLPPLDAPELSGADPFYVHYEATRRSARLLAPLLAAADASALVADISLASVLIPVASELRLPCYVFFTASATMFSFYAYYPTYLDAAGAGDADVPGVYRIPKSSFPQALHDRNNLFTQQFVANGQSLSKADGLLINTFDALEPEAVTALRQGSVVPGFPPVFNVGPLSPVSFPARASSDYSAWLDAQPERSVVYVSFGSRKALARDQLSELADGLEASGCRFLWVVKGTVVDKDDGAELSELLGEGFLQRVSGRALVTKAWVEQGEVLKHPAIGMFVSHCGWNSLTEAFASGVPVLAWPRFADQRVNAGIVARRGAGVWVERWSWEGDDGVVKGEEIAEKVKSVMADEMLRRSSTVVREAAMTAVAGGGTSYRSLAELVARCCDGSASNAPSEA | can convert the substrate phloretin to a product having a shorter retention time | 
5 | BdCGT1: C-glycosyltransferase from Brachypodium distachyo, SEQ ID NO: 16 (protein, Brachypodium distachyon) MPTSGDGPTSQPHVVLLPSAGMGHLVPFSRLAVALSSAHGCDVSLVTVLPTVSSAESSHLEALFGAFPAVRRLEFHLADFDASEFPNADPFFLRFEAMRRSAPLLLGPLLARASATALVTDIALSSVVIPVAKQLRLPCYVLFTASAAMLSLCVHFPAYLDANGNGLVGDVDIPGVYQIPKASVPQALHDPKHLFTRQFVANGRELAKSDGVLVNSFDAFEPEAIAALREGAVSAAGFFPPVFSVGPLAPVSFPAGNNNRADYIQWLEAQPARSVVYVSFGSRKAVARDQLRELAAGLEASGHRFLWVVKSTVVDRDDDADLGELLGEGFLERVQGRGMVTKGWVEQEDVLKQESVGLFISHCGWNSVTEAAAGGLPVLAWPRFGDQRVNAGVVARSGLGVWVDSWSWEGEEGVVSGESIAEKVKAVMGDEIARNKAVSVRDAAAKAVADGGTSYRNLARFAQRCRDGRVRE | can convert the substrate phloretin to a product having a shorter retention time | 
6 | TaCGT2-B: C-glycosyltransferase from wheat, SEQ ID NO: 12 (protein, listed as Triticum aestivum) MASSPRDDRAGAAAPRPRIVLLPSASMGHLAPFSRLAAALSSGHACDVSLVTVLPTVSSAESGQLDALFAAFPAVRRLDFQLPPLDAPELSGADPFYVHYEATRRSARLLAPLLAAADASVLVADISLASVLIPVASELRLPCYVFFTASATMFSFYAYYPTYLDAAGAGDADVPGVYRIPKSSFPQALHDRNNLFTQQFVANGRSLSKADGLLINTFDALEPEAVTALRQGSVVPGCPPVFTVGPLSPVSFPARASADYSACLDAQPERSVVYVSFGSRKALARDQLSELADGLEASGCRFLWVVKGAVVDKDDGAELSELLGEGFLQRVSGRALVTKAWVEQGEVLKHPAIGMFVSHCGWDSLTEAFATGVPVLAWPRFADQRVNAGIVARCGAGVWVERWSWEGDEGVVKGEEIAEKVKSVMANEMLRRSSTMVREAAMTAVAGGGTSYRSLAELVARCCDGSASQ | can convert the substrate phloretin to a product having a shorter retention time | 
7 | TaCGT1-D: C-glycosyltransferase from wheat, SEQ ID NO: 10 (protein, listed as Triticum aestivum) MPTSGDASGALPHPHVVLLPSAGMGHLVPFSRLAVSLSSPGHGCGVSVATVLPTVSSAESAHLDALFGACPAVRRLDFHLAPFDASEFPGADPFFLRFEAMRRSAPLLGPLLAGAGASALVTDIALASVVIPVARDLRLPCYVLFTASAAMLSLCVHFPAYLDANAGGPVGDVGIPGVYRVPKASIPQALHHPEHLFTQQFVANGRELAKADGLLVNSFDAFEPEAIAALRNGSVAAGFPPVFSVGPLAPVSFSASEPPENQADYMRWLEAQPARSVVYVSFGSRKAISKDQLRELAVGLEASGHRFLWVVKSTVVDRDDEAELSELLGEGFLERVQGRGMVTKGWVEQEEVLKQESIGLFISHCGWNSVTEAAANGLPVLAWPRFGDQRVNAGVVARSGLGVWEERWSWEGEEGTVSGHNIAEKVKTVMADKTVRNKAVSVQDAAAEAVADGGTSYRSLAQFVQRCRDLSVSK | can convert the substrate phloretin to a product having a shorter retention time | can catalyze the glycosylation of the 3′-glycosylated phloretin at the 5′ position
8 | TaCGT2-A: C-glycosyltransferase from wheat, SEQ ID NO: 11 (protein, listed as Triticum aestivum) MASSSRDDRAGAAAPRPRIVLLPSAGMGHLAPFSRLAAALSSGHACDVSLVTVLPTVSSAESGQLDALFAAFPAVRRLDFHLPPLDAPELSGADPFYVHYEATRRSARLLAPLLAAADASALIADISLASVLIPVASELRLPCYVFFTASATMFSFYAYYPTYLDATGAGDADVPGVYRIPKSSFPQALHDRNNLFTQQFVANGRSLSKADGLLINTFDDLEPEAVTALRQGSVVPGFPPVFTVGPLSPVSFPARASSDYSAWLDAQPERSVVYVSFGSRKALARDQLSELADGLEASGCRFLWVVKGAVVDKDDGAELSELLGEGFLQRVSGRALVTKAWVEQGEVLKHPAIGMFVSHCGWNSLTEAFATGVPVLAWPRFADQRVNAGIVARCGAGVWVERWSWEGDDGVVKGEEIAEKVKSVMADEMLRRSSTVVREAATTAVAGGGTSYRSLAELVARCCHGSALQ | can convert the substrate phloretin to a product having a shorter retention time | 
